From patent US20260125451A1 (JIANGSU HENGRUI PHARMACEUTICALS, published 2026) come the findings set out here.

Read-outs that look alike come from different tables or passages of the source.

Assay [1] concerns the target T1, type I interferon (IFN) receptor subunit 1 (IFNAR1) (human, UniProt P17181 28-557).
T1 sequence (looked up): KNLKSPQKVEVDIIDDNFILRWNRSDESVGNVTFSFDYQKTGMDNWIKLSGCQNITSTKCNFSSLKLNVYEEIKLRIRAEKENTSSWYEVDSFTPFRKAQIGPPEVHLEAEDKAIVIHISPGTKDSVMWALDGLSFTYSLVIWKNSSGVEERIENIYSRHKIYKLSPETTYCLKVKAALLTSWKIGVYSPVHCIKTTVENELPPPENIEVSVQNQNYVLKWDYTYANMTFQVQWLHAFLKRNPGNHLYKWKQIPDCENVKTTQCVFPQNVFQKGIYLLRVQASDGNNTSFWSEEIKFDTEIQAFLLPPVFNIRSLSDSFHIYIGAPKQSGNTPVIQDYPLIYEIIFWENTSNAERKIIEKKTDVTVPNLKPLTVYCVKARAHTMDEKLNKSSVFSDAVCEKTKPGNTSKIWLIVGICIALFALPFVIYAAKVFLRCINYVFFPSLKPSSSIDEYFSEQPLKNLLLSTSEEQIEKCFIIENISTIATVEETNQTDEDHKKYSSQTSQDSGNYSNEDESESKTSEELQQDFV
Kind of assay: cell-based or functional assay.

Assay [2] deals with T1, type I interferon (IFN) receptor …. Kind of assay: cell-based or functional assay. This is another data set of the same source.
Assay [3] deals with T2, APRIL (Acro Biosystems, Cat: APL-H52D1) (UniProt O75888 115-250, limits assumed).
T2 construct: also called ARPIL; A proliferation-inducing ligand
T2 sequence (looked up): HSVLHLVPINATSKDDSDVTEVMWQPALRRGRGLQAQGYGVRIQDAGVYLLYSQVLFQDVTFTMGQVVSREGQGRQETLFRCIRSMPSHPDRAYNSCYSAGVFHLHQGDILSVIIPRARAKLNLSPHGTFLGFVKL
The assay can be described thus: ELISA, APRIL coated, anti-human Fc-HRP, OD450. As for the experimental part:
The capabilities of fusion proteins B606401, B637302, B746201, and B805201 to bind to BAFF and APRIL were assessed by ELISA as follows:
(§1) BAFF (PeproTech, Cat: 310-13) or ARPIL (Acro Biosystems, Cat: APL-H52D1) was diluted to 1 μg/mL with PBS, and a 96-well plate was coated with the dilution overnight at 4° C. The plate was washed with PBST and blocked with Blocking Buffer (PBST containing 1% BSA) at 37° C. for 1 h. The plate was tapped. The test antibodies were diluted with Blocking Buffer. Incubation was performed at 37° C. for 1.5 h. The plate was washed with PBST. An HRP-mouse anti-human Fc antibody (GenScript, Cat: A01854-200) was diluted with Blocking Buffer. Incubation was performed at 37° C. for 40 min. The plate was washed with PBST. 100 μL of TMB substrate solution (Biopanda, Cat: TMB-S-003) was added, and color development was performed at 37° C. for 3 min. 100 μL of ELISA stop solution (Solarbio, Cat: C1058) was added. OD450 was measured.
The EC₅₀ value for the capability of B637302 to bind to APRIL decreased to 1/7 to ⅙ of that of telitacicept.
Background: ELISA stands for enzyme-linked immunosorbent assay.

The target in assay [4] is recombinant human BAFF (R&D cat: 7537-BF-025/CF) (human, UniProt Q9Y275 134-285, limits assumed). The assay can be described thus: cell-based or functional assay.
Assay [5] has as its target T3, recombinant human ARPIL (R&D cat: 5860-AP-010/CF) (human, UniProt O75888 105-250, limits assumed).
T3 sequence (looked up): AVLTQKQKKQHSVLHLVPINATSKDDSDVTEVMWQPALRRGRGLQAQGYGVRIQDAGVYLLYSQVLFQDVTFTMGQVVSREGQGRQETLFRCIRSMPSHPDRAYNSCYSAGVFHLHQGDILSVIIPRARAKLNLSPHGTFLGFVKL
Kind of assay: cell-based or functional assay.

Assay [6] deals with T2, APRIL (Acro Biosystems, Cat: APL-H52D1). Kind of assay: ELISA, APRIL coated, anti-human Fc-HRP, OD450. Here is the method: The capabilities of B613301, B613302, and B613303, which are fusion proteins of anifrolumab and TACI-BCMA, to bind to BAFF and APRIL were assessed by ELISA as follows:
as §1, with “96-well plate (Costar, Cat: 3590) was coated” for “96-well plate was coated”
The source holds these as a separate data set.

Sequence of recombinant human BAFF (R&D cat: 7537-BF-025/CF) (Q9Y275 134-285 limits assumed): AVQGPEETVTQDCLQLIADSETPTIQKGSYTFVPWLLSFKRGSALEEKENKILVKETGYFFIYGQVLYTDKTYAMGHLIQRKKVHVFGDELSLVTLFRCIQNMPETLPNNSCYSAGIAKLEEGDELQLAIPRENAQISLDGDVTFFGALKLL

B1: Anifrolumab (antibody, human IgG1, kappa, V domains shown)
VH: EVQLVQSGAEVKKPGESLKISCKGSGYIFTNYWIAWVRQMPGKGLESMGIIYPGDSDIRYSPSFQGQVTISADKSITTAYLQWSSLKASDTAMYYCARHDIEGFDYWGRGTLVTVSS
VL: EIVLTQSPGTLSLSPGERATLSCRASQSVSSSFFAWYQQKPGQAPRLLIYGASSRATGIPDRLSGSGSGTDFTLTITRLEPEDFAVYYCQQYDSSAITFGQGTRLEIKR
Consider B1, for which the “IC50, inhibition of IFN-α-induced in vitro differentiation of B cells into plasma cells” value in assay [1] turned out to be 12.7 nM. Besides, in assay [2], the “IC50 (nM), inhibition of the activity of type I interferons (IFN-β, HEK-Blue IFN-α/β cells)” value (“IC50 (nM), inhibition” below) amounted to 1.53 nM.

B2: B637302 (other)
heavy: EVQLVQSGAEVKKPGESLKISCKGSGYIFTNYWIAWVRQMPGKGLESMGIIYPGDSDIRYSPSFQGQVTISADKSITTAYLQWSSLKASDTAMYYCARHDIEGFDYWGRGTLVTVSSASTKGPSVFPLAPSSKSTSGGTAALGCLVKDYFPEPVTVSWNSGALTSGVHTFPAVLQSSGLYSLSSVVTVPSSSLGTQTYICNVNHKPSNTKVDKRVEPKSCDKTHTCPPCPAPEFEGGPSVFLFPPKPKDTLMISRTPEVTCVVVDVSHEDPEVKFNWYVDGVEVHNAKTKPREEQYNSTYRVVSVLTVLHQDWLNGKEYKCKVSNKALPASIEKTISKAKGQPREPQVYTLPPSRDELTKNQVSLTCLVKGFYPSDIAVEWESNGQPENNYKTTPPVLDSDGSFFLYSKLTVDKSRWQQGNVFSCSVMHEALHNHYTQKSLSLSPGK
light: EIVLTQSPGTLSLSPGERATLSCRASQSVSSSFFAWYQQKPGQAPRLLIYGASSRATGIPDRLSGSGSGTDFTLTITRLEPEDFAVYYCQQYDSSAITFGQGTRLEIKRTVAAPSVFIFPPSDEQLKSGTASVVCLLNNFYPREAKVQWKVDNALQSGNSQESVTEQDSKDSTYSLSSTLTLSKADYEKHKVYACEVTHQGLSSPVTKSFNRGECGGGGSGGGGSMLQMAGQCSQNEYFDSLLHACIPCQLRCSSNTPPLTCQRYCSTSCREEQGEFYDHLLRDCISCASICGQHPKQCAAFCE
notes: Fusion protein of anifrolumab, TACI-19-16 and BCMA-ECD-2
The molecule B2 yielded an Emax in assay [3] of 2.9 nM. Moreover, in assay [4], the “Flow cytometry proliferating B cell proportion (%), mean, BAFF-induced, drug at 10 nM” value was determined as 23.8%; the “Flow cytometry proliferating B cell proportion (%), mean, BAFF-induced, drug at 100 nM” value came to 22.2%; the “Flow cytometry proliferating B cell proportion (%), mean, BAFF-induced, drug at 1000 nM” value came out at 10.9%. Also, in assay [5], the “Flow cytometry proliferating B cell proportion (%), mean, APRIL-induced, drug at 4.12 nM” value stood at 50.6%; the “Flow cytometry proliferating B cell proportion (%), mean, APRIL-induced, drug at 12.35 nM” value is 50.7%; the “Flow cytometry proliferating B cell proportion (%), mean, APRIL-induced, drug at 37.04 nM” value stood at 53.6%; the “Flow cytometry proliferating B cell proportion (%), mean, APRIL-induced, drug at 111.11 nM” value came to 51.5%. Further, in assay [5], the “Flow cytometry proliferating B cell proportion (%), mean, APRIL-induced, drug at 333.33 nM” value worked out at 48% and the “Flow cytometry proliferating B cell proportion (%), mean, APRIL-induced, drug at 1000.00 nM” value is 33.6%. Further, the “IC50, inhibition of IFN-α-induced in vitro differentiation of B cells into plasma cells” value in assay [1] worked out at 10.8 nM. For the same molecule, the “IC50 (nM), inhibition” value in assay [2] is 1.59 nM.

B3: B606401 (other)
heavy: EVQLVQSGAEVKKPGESLKISCKGSGYIFTNYWIAWVRQMPGKGLESMGIIYPGDSDIRYSPSFQGQVTISADKSITTAYLQWSSLKASDTAMYYCARHDIEGFDYWGRGTLVTVSSASTKGPSVFPLAPSSKSTSGGTAALGCLVKDYFPEPVTVSWNSGALTSGVHTFPAVLQSSGLYSLSSVVTVPSSSLGTQTYICNVNHKPSNTKVDKRVEPKSCDKTHTCPPCPAPEFEGGPSVFLFPPKPKDTLMISRTPEVTCVVVDVSHEDPEVKFNWYVDGVEVHNAKTKPREEQYNSTYRVVSVLTVLHQDWLNGKEYKCKVSNKALPASIEKTISKAKGQPREPQVYTLPPSRDELTKNQVSLTCLVKGFYPSDIAVEWESNGQPENNYKTTPPVLDSDGSFFLYSKLTVDKSRWQQGNVFSCSVMHEALHNHYTQKSLSLSPGK
light: EIVLTQSPGTLSLSPGERATLSCRASQSVSSSFFAWYQQKPGQAPRLLIYGASSRATGIPDRLSGSGSGTDFTLTITRLEPEDFAVYYCQQYDSSAITFGQGTRLEIKRTVAAPSVFIFPPSDEQLKSGTASVVCLLNNFYPREAKVQWKVDNALQSGNSQESVTEQDSKDSTYSLSSTLTLSKADYEKHKVYACEVTHQGLSSPVTKSFNRGECGGGGSGGGGSSTSCREEQGEFYDHLLRDCISCASICGQHPKQCAAFCE
notes: Anifrolumab with TACI-19-16 at the C-terminus of the light chain
Take B3: the Emax in assay [3] stood at 2.81 nM. In assay [4], the “Flow cytometry proliferating B cell proportion (%), mean, BAFF-induced, drug at 10 nM” value turned out to be 28.1%; the “Flow cytometry proliferating B cell proportion (%), mean, BAFF-induced, drug at 100 nM” value came to 25.3%; the “Flow cytometry proliferating B cell proportion (%), mean, BAFF-induced, drug at 1000 nM” value is 17.9%. Further, in assay [5], the “Flow cytometry proliferating B cell proportion (%), mean, APRIL-induced, drug at 4.12 nM” value stood at 52%; the “Flow cytometry proliferating B cell proportion (%), mean, APRIL-induced, drug at 12.35 nM” value came to 52.9%; the “Flow cytometry proliferating B cell proportion (%), mean, APRIL-induced, drug at 37.04 nM” value is 53.6%; the “Flow cytometry proliferating B cell proportion (%), mean, APRIL-induced, drug at 111.11 nM” value was found to be 53.1%. In assay [5], the “Flow cytometry proliferating B cell proportion (%), mean, APRIL-induced, drug at 333.33 nM” value was found to be 50.6% and the “Flow cytometry proliferating B cell proportion (%), mean, APRIL-induced, drug at 1000.00 nM” value is 40.3%. Moreover, the “IC50, inhibition of IFN-α-induced in vitro differentiation of B cells into plasma cells” value in assay [1] was 17.4 nM. Besides, the “IC50 (nM), inhibition” value in assay [2] amounted to 1.94 nM.

B4: B613303 (other)
heavy: EVQLVQSGAEVKKPGESLKISCKGSGYIFTNYWIAWVRQMPGKGLESMGIIYPGDSDIRYSPSFQGQVTISADKSITTAYLQWSSLKASDTAMYYCARHDIEGFDYWGRGTLVTVSSASTKGPSVFPLAPSSKSTSGGTAALGCLVKDYFPEPVTVSWNSGALTSGVHTFPAVLQSSGLYSLSSVVTVPSSSLGTQTYICNVNHKPSNTKVDKRVEPKSCDKTHTCPPCPAPEFEGGPSVFLFPPKPKDTLMISRTPEVTCVVVDVSHEDPEVKFNWYVDGVEVHNAKTKPREEQYNSTYRVVSVLTVLHQDWLNGKEYKCKVSNKALPASIEKTISKAKGQPREPQVYTLPPSRDELTKNQVSLTCLVKGFYPSDIAVEWESNGQPENNYKTTPPVLDSDGSFFLYSKLTVDKSRWQQGNVFSCSVMHEALHNHYTQKSLSLSPGK
light: EIVLTQSPGTLSLSPGERATLSCRASQSVSSSFFAWYQQKPGQAPRLLIYGASSRATGIPDRLSGSGSGTDFTLTITRLEPEDFAVYYCQQYDSSAITFGQGTRLEIKRTVAAPSVFIFPPSDEQLKSGTASVVCLLNNFYPREAKVQWKVDNALQSGNSQESVTEQDSKDSTYSLSSTLTLSKADYEKHKVYACEVTHQGLSSPVTKSFNRGECGGGGSGGGGSSRVDQEERFPQGLWTGVAMRSCPEEQYWDPLLGTCMSCKTICNHQSQRTCAAFCRSLSCRKEQGKFYDHLLRDCISCASICGQHPKQCAYFCENKLRSPVNLPPELMLQMAGQCSQNEYFDSLLHACIPCQLRCSSNTPPLTCQRYCNASVTNSVKGTNA
notes: Fusion protein of anifrolumab and TACI-BCMA
Turning to B4, the Emax in assay [6] was 2.33 nM.
